The values that follow are results of earlier work, collected in PMC6165679.

Data set [1] addresses APJ receptor (Homo sapiens) (UniProt P35414).
Data set [2] shares this target. In words: competition binding.

Sequence of UniProt P35414 (P35414 whole entry): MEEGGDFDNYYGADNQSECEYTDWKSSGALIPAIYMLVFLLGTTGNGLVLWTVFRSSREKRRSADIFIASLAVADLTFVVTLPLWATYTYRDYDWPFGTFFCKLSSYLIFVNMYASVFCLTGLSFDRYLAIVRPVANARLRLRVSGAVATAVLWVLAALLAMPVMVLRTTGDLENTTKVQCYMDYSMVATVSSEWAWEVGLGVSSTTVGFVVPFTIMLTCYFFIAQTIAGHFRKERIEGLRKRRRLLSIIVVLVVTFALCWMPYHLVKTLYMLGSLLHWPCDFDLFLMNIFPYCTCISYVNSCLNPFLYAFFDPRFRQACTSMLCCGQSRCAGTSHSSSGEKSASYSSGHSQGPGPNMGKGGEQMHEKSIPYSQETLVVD

As to cyclo(1–6)CRPRLC-KH-cyclo(9–14)CRPRLC, the Ki in data set [1] is 82 nM. For the same substance, the dissociation constant (Kd) in data set [2] was 3200 nM.

For orientation: Ki means the equilibrium dissociation constant of an inhibitor or competing ligand from its target. A word on the Kd: it is a measure of binding affinity in units of concentration.
